For test [1], the target named is T1, his6-tagged full-length Pam18 (S. cerevisiae, UniProt Q07914 1-168).
T1 sequence: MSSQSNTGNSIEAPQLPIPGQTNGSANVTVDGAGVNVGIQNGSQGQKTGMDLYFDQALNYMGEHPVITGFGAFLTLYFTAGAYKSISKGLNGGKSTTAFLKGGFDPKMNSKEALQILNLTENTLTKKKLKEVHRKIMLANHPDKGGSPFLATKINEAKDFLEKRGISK
Nature of the test: pull-down.

The target in test [2] is GST-Magmas_(F92G) (in MagmasJ+T) (human). Nature of the test: pull-down.

B1: full-length GST-Magmas (natural protein)
chain: MAKYLAQIIVMGVQVVGRAFARALRQEFAASRAAADARGRAGHRSAAASNLSGLSLQEAQQILNVSKLSPEEVQKNYEHLFKVNDKSVGGSFYLQSKVVRAKERLDEELKIQAQEDREKGQMPHT
As for B1, the binding result in test [1] is on record as “binds”.

B2: his6-tagged Pam18J+T (domain or fragment)
chain: KSISKGLNGGKSTTAFLKGGFDPKMNSKEALQILNLTENTLTKKKLKEVHRKIMLANHPDKGGSPFLATKINEAKDFLEKRGISK
With B2, the “fold reduction in the binding affinity against wild-type Magmas” value in test [2] is 2 fold.
